Numbering of substitutions follows the chain as printed.
B1: ACTN75: activin A variant peptide, SEQ ID 76 (protein)
chain: GLECDGKVNICCKKQSFGQAKDIGWNDWIIAPSGYHGGGCSGECPSHIAGTSGSSLSFHSTVINHYRMRGHSPWANLKSCCSPTKLRPMSMLYYDDGQNIIKKDIQRMKVEECGCT
B2: ACTN76: activin A variant peptide, SEQ ID 77 (protein)
chain: B1 chain with S16L, A20T, W74N, R107G
B3: ACTN79: activin A variant peptide, SEQ ID 80 (protein)
chain: B1 chain with S41T, K109V
B4: ACTN84: activin A variant peptide, SEQ ID 85 (protein)
chain: B1 chain with W74F, R107N, K109V
B5: ACTN87: activin A variant peptide, SEQ ID 88 (protein)
chain: B1 chain with G39S, W74F, R107N, K109V
B6: ACTN89: activin A variant peptide, SEQ ID 90 (protein)
chain: B1 chain with S16L, A20T, W74N, R107N
B7: ACTN90: activin A variant peptide, SEQ ID 91 (protein)
chain: B1 chain with A20T, G39S, W74F, R107N
B8: ACTN24: activin A variant peptide, SEQ ID 25 (protein)
chain: GLECDGKVNLCCKKQDFVSFKDIGWNDWIIAPSGYHANRCSGRCPSHIAGTSGSSLSFHSTVINHYRMRGHSPFSDMGSCCVPTKLRPMSMLYYDDGQNIIKKDIQNMIVEECGCS
B9: ACTN25: activin A variant peptide, SEQ ID 26 (protein)
chain: B8 chain with D16N, R39E, R43L, D76Q, V82I
B10: ACTN26: activin A variant peptide, SEQ ID 27 (protein)
chain: B8 chain with D16H, S41D, R43K, S75A, D76N, S79A, V82I
B11: ACTN29: activin A variant peptide, SEQ ID 30 (protein)
chain: B8 chain with D16L, R39H, R43K, V82I
B12: ACTN30: activin A variant peptide, SEQ ID 31 (protein)
chain: B8 chain with L10Y, D16N, R39K, R43L, D76K, S79A
B13: ACTN31: activin A variant peptide, SEQ ID 32 (protein)
chain: B8 chain with L10T, D16L, R39H, R43K, V82I
B14: ACTN33: activin A variant peptide, SEQ ID 34 (protein)
chain: B8 chain with D16N, R39E, S41M, R43K, S79A, V82I

Test system: H1 or H9 human embryonic stem cells
Experiment: Activin A bioassay: differentiation of human embryonic stem cells to definitive endoderm, cell number and SOX17 intensity by high content analysis (96-well, four days);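 on Cell Number average: Raw total cell count per well from high content imaging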;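 on Sox 17 Intensity average: total fluorescence of the cell multiplied by cell area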
Format: cell-based
Conditions: supernatant concentration 1x, assay dilution 1:20
From the text: Activin A is an important mediator of differentiation in a broad range of cell types. […] A bioassay that measures this differentiation in human embryonic stem cells was adapted in miniaturized format to 96-well plates for screening purposes. Validation was completed using treatment with commercial sources of activin A and Wnt3a recombinant proteins and measuring protein expression of the transcription factor SOX17, which is considered a representative marker of definitive endoderm.
Live Cell Assay: Briefly, clusters of H1 or H9 human embryonic stem cells were grown on growth factor-reduced MATRIGEL™ (Invitrogen; Cat #356231)-coated tissue culture plastic. Cells were passaged using collagenase (Invitrogen; Cat # Cat #17104-019) treatment and gentle scraping, washed to remove residual enzyme, and plated in a ratio of 1:1 (surface area) on growth factor-reduced MATRIGEL™-coated 96-well plates (black, 96-well; Packard ViewPlates; Cat #6005182). Cells were allowed to attach as clusters and then recover log phase growth over a 1 to 3 day period, feeding daily with MEF conditioned medium supplemented with 8 ng/ml bFGF (R&D Systems; Cat #233-FB).
The assay was initiated by washing the wells of each plate twice in PBS and followed by adding an aliquot (100 μl) of test sample in DMEM:F12 basal medium (Invitrogen; Cat #11330-032) to each well. Test conditions were performed in triplicate, feeding […] by aspirating and replacing the medium from each well with test samples over a total four day assay period. On the first and second day of assay, test samples added to the assay wells were diluted in DMEM:F12 with 0.5% FCS (HyClone; Cat #SH30070.03) and 20 ng/ml Wnt3a (R&D Systems; Cat #1324-WN). On the third and fourth day of assay, test samples added to the assay wells were diluted in DMEM:F12 with 2% FCS, without any Wnt3a. Positive control samples consisted of recombinant human activin A (Peprotech; Cat #120-14) added at a concentration of 100 ng/ml throughout assay plus Wnt3a (20 ng/ml) on days 1 and 2. Negative control samples omitted treatment with both activin A and Wnt3a.
High Content Analysis: At the conclusion of four days of culture, assay plates were washed twice with PBS, fixed with 4% paraformaldehyde at room temperature for 20 minutes, then washed three times with PBS and permeabilized with 0.5% Triton X-100 for 20 minutes at room temperature. Cells were washed again three times with PBS and blocked with 4% chicken serum (Invitrogen; Cat #16110082) in PBS for 30 minutes at room temperature. Primary antibody (goat anti-human SOX17; R&D Systems; cat #AF1924) was diluted 1:100 in 4% chicken serum and added to each well for one hour at room temperature. Alexa Fluor 488 conjugated secondary antibody (chicken anti-goat IgG; Molecular Probes; Cat #) was diluted 1:200 in PBS and added to each sample well after washing three times with PBS. To counterstain nuclei, 4 μg/ml Hoechst 33342 (Invitrogen; Cat #H3570) was added for ten minutes at room temperature. Plates were washed once with PBS and left in 100 μl/well PBS for imaging.
Imaging was performed using an IN Cell Analyzer 1000 (GE Healthcare) utilizing the 51008bs dichroic for cells stained with Hoechst 33342 and Alexa Fluor 488. Exposure times were optimized from positive control wells and from untreated negative control wells stained with secondary antibody alone. Images from 15 fields per well were acquired to compensate for any cell loss during the bioassay and subsequent staining procedures. Measurements for total cell number and total SOX17 intensity were obtained from each well using IN Cell Developer Toolbox 1.7 (GE Healthcare) software. Segmentation for the nuclei was determined based on grayscale levels (baseline range 100-300) and nuclear size. Averages and standard deviations were calculated for each replicate data set. […]

Point of comparison: B2, “Cell Number average” value 3613. Against it:
- B1 — lower, 2873
- B3 — lower, 2958
- B4 — lower, 1976
- B5 — lower, 1548
- B6 — higher, 5495
- B7 — lower, 1727

Point of comparison: B7, “Sox 17 Intensity average” value 1.34E+06. Against it:
- B1 — lower, 1.81E+05
- B2 — lower, 9.19E+05
- B3 — lower, 4.07E+05
- B4 — lower, 3.37E+05
- B5 — lower, 5.85E+05
- B6 — lower, 3.63E+05

Same assay, conditions: supernatant concentration 1x, assay dilution 1:20; control = R&D Sys Activin A 100 ng/ml on same plate

Point of comparison: B5, “Sox 17 Intensity % of control” value 2.6%. Against it:
- B1 — lower, 0.8%
- B2 — higher, 4.0%
- B3 — lower, 1.8%
- B4 — lower, 1.5%
- B6 — lower, 1.6%
- B7 — higher, 5.9%

Same assay, conditions: supernatant concentration 10x, assay dilution 1:20

Point of comparison: B5, “Cell Number average” value 3258. Against it:
- B1 — higher, 3867
- B2 — higher, 4732
- B3 — higher, 7704
- B4 — lower, 2272
- B6 — higher, 5558
- B7 — lower, 2819

Point of comparison: B2, “Sox 17 Intensity average” value 1.43E+06. Against it:
- B1 — lower, 3.91E+05
- B3 — lower, 3.83E+05
- B4 — lower, 2.65E+05
- B5 — lower, 7.89E+05
- B6 — lower, 5.77E+05
- B7 — lower, 4.13E+05

Same assay, conditions: supernatant concentration 10x, assay dilution 1:20; assay plates #007, #009, #010

Point of comparison: B9, “Cell Number average” value 5043. Against it:
- B8 — lower, 3261
- B10 — lower, 4250
- B11 — higher, 8943
- B12 — higher, 7357
- B13 — higher, 10450
- B14 — lower, 3588

Point of comparison: B10, “Sox 17 Intensity average” value 5.92E+05. Against it:
- B8 — higher, 2.91E+06
- B9 — higher, 3.55E+06
- B11 — higher, 5.13E+07
- B12 — higher, 6.73E+05
- B13 — higher, 5.44E+07
- B14 — higher, 2.15E+06

Same assay, conditions: supernatant concentration 10x, assay dilution 1:20; control = R&D Sys Activin A 100 ng/ml on same plate

Point of comparison: B7, “Sox 17 Intensity % of control” value 1.8%. Against it:
- B1 — lower, 1.7%
- B2 — higher, 6.2%
- B3 — lower, 1.7%
- B4 — lower, 1.2%
- B5 — higher, 3.4%
- B6 — higher, 2.5%
- B8 — higher, 13.2%
- B9 — higher, 16.1%
- B10 — higher, 2.7%
- B11 — higher, 232.0%
- B12 — higher, 3.0%
- B13 — higher, 246.3%
- B14 — higher, 9.7%

Same assay, conditions: supernatant concentration 10x, assay dilution 1:40

Point of comparison: B5, “Cell Number average” value 3613. Against it:
- B1 — higher, 3641
- B2 — higher, 7608
- B3 — lower, 2486
- B4 — higher, 5228
- B6 — higher, 4474
- B7 — lower, 3042

Point of comparison: B1, “Sox 17 Intensity average” value 1.24E+06. Against it:
- B2 — lower, 7.54E+05
- B3 — lower, 6.19E+04
- B4 — lower, 8.40E+05
- B5 — lower, 3.99E+05
- B6 — lower, 7.23E+05
- B7 — higher, 1.33E+06

Same assay, conditions: supernatant concentration 10x, assay dilution 1:40; control = R&D Sys Activin A 100 ng/ml on same plate

Point of comparison: B1, “Sox 17 Intensity % of control” value 5.4%. Against it:
- B2 — lower, 3.3%
- B3 — lower, 0.3%
- B4 — lower, 3.7%
- B5 — lower, 1.7%
- B6 — lower, 3.2%
- B7 — higher, 5.8%

Same assay, conditions: supernatant concentration 50x, assay dilution 1:20; assay plates #008, #009

Point of comparison: B10, “Cell Number average” value 5043. Against it:
- B8 — lower, 4785
- B9 — lower, 4620
- B11 — higher, 8835
- B12 — lower, 5013
- B13 — higher, 11148
- B14 — lower, 3383

Point of comparison: B13, “Sox 17 Intensity average” value 1.49E+08. Against it:
- B8 — lower, 1.04E+07
- B9 — lower, 1.52E+07
- B10 — lower, 4.78E+06
- B11 — lower, 1.03E+08
- B12 — lower, 2.87E+06
- B14 — lower, 6.50E+06

Same assay, conditions: supernatant concentration 50x, assay dilution 1:20; control = R&D Sys Activin A 100 ng/ml on same plate

Point of comparison: B10, “Sox 17 Intensity % of control” value 8.6%. Against it:
- B8 — higher, 18.8%
- B9 — higher, 27.6%
- B11 — higher, 186.2%
- B12 — lower, 5.2%
- B13 — higher, 269.7%
- B14 — higher, 11.8%

From patent US20110091971A1, “Differentiation of Pluripotent Stem Cells” (priority 2008, published 2011)
